Entries after “also recorded” stand apart in the source; their conditions may differ.
Columns and labels:
[1] = target: T1, aldehyde decarbonylase (ADC) (Prochlorococcus marinus, UniProt Q7V6D4); experiment: decarbonylase assay (octadecanal to alkane, GC/MS); format: biochemical
T1 construct: made in house; host or cells: E. coli BL21 (DE3) Gold
T1 sequence (Q7V6D4 1-243): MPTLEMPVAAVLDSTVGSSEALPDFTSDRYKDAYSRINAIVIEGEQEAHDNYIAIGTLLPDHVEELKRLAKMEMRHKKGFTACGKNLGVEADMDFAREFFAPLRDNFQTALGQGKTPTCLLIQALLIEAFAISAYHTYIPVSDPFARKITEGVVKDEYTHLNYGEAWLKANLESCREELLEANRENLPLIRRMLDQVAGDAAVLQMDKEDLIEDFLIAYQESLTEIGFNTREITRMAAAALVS
Description: (§1) Typical decarbonylase assays were 0.25 mL and contained 25 mM Tris-Cl pH 7.5, 0.1% Triton X-100, 1 mM DTT, 50 μg/mL maize root ferredoxin and 1 U/mL anabaena vegetative ferredoxin reductase (Cahoon et al. 1997, PNAS 94:4872-4877.), 2 mM NADPH, 200 μM octadecanal, and between 0.2-5 μM ADC or CAT-ADC. A 20 mM octadecanal stock was freshly prepared by sonicating powder in 10% Triton X-100. Octadecanal was obtained from ISCA technologies. When indicated catalase (Sigma C-9322) was added to a final concentration of 4 mg/mL from a 20 mg/mL stock dissolved in 100 mM PIPES pH 6.0. For assays performed in 100% oxygen a reaction master mix without NADPH and a separate NADPH solution were prepared by repeated purging of the sample cell with 100% O2 and vacuum with the use of a Schlenk line. Reactions were initialed by addition of either enzyme, substrate, or NADPH and were incubated at 37° C. and stopped by the addition of an equal volume of ethyl acetate. The organic phase was separated by GC/MS on an HP-5 ms column with oven temperature increasing from 75° C. to 320° C. at 40° C./min with a flow rate of 1.3 ml/min. Substrate and product were identified by comparison to authentic standards.

[2] = substrate: CCCCCCCCCCCCCC=O; experiment: Decarbonylase assay: kinetics of aldehyde decarbonylase activity with aldehyde substrates of different lengths (FIG. 8); recombinant ADC, GenBank CAE21406.1, with N-terminal MGSDKIHHHHHHENLYFQG tag, expressed in E. coli BL21 (DE3) Gold; no mutations stated; format: biochemical, Prochlorococcus marinus; conditions: other: aldehyde as substrate, typical assay 25 mM Tris-Cl pH 7.5, 0.1% Triton X-100, ferredoxin, ferredoxin reductase, 2 mM NADPH, 37° C., GC/MS
Description: (§2) A catalase transcriptional fusion was produced as described below. […] The Catalase used was Ec catalase (GenBank Accession No. U00092.2) though the present invention is not limited to the use of this particular catalase. The ADC used was Pm ADC (GenBank Accession No. CAE21406.1). The ADC contains a diiron site. ADCs utilizing other metals are also suitable for use. For example, ribonucleotide reductase, which is normally a diiron protein can also use Mn (manganese) (Metallomics, 2011, 3(2):110-120, ePub […] Jan. 25). The catalase and ADC sequences were connected by a 20 amino acid linker: […] [SEQ ID NO: 8]. A 6×His-tag was added to the 3′ end for simplified purification. The recombinant catalase-ADC fusion (hybrid) protein (CAT-ADC or CA) was produced using the T7 expression system in E. coli and was purified using Ni-NTA agarose resin.
(§3) The pSpeedET T7 inducible bacterial expression plasmid containing the coding sequence for Prochlorococcus marinus aldehyde decarbonylase (ADC, GenBank: CAE21406.1 [SEQ ID NO: 1]) fused with an N-terminal MGSDKIHHHHHHENLYFQG [SEQ ID NO: 2] tag as constructed by the Joint Center for Structural Genomics, was obtained from the DNASU plasmid repository. The E. coli catalase (katE GenBank: U00096.2 [SEQ ID NO: 3]) ADC fusion protein (CAT-ADC) was constructed by overlap extension PCR. Primers for catalase were: forward—[…] [SEQ ID NO: 4] and reverse—[…] TTTGTCAATCTTAGG [SEQ ID NO: 5]. Primers for ADC were: forward—[…] TTGAGATGCCT [SEQ ID NO: 6] and reverse—[…] [SEQ ID NO: 7]. The final construct contained catalase followed by a 20 amino acid flexible linker domain ([…] [SEQ ID NO: 8]) (Martin et al 2005, Nature 473:1115-1120.) followed by ADC and finally a C-terminal hexahistidine tag and was cloned into the NdeI and XhoI sites of pET24b.
(§4) E. coli BL21 (DE3) Gold cells containing various plasmids were grown at 37° C. to an OD600 of 0.4, were induced with 0.4 mM IPTG, and were grown for an additional 4 hours at 37° C. for ADC or 30° C. for CAT-ADC. Cell pellets were suspended in 20 mM Tris-Cl pH 7.5, 150 mM NaCl, 20 mM imidazole, 5 mM MgCl2, and 0.1 mg/mL DNase and were lysed using a French pressure cell. Cellular debris was removed by centrifugation at 40,000×g for 20 min. Recombinant proteins were purified from the soluble fraction with Ni-NTA resin (Qiagen). Wash and elution buffers were 20 mM Tris-Cl pH 7.5, 300 mM NaCl, and 25 or 250 mM imidazole, respectively. Eluted proteins were immediately exchanged into 20 mM HEPES pH 7.8, 200 mM NaCl using PD-10 desalting columns. Protein concentration was determined with Bradford Assay (Sigma).
as §1

[3] = substrate: CCCCCCCCCCCC=O; experiment: as above; format: biochemical, Prochlorococcus marinus; conditions: other: aldehyde as substrate, typical assay 25 mM Tris-Cl pH 7.5, 0.1% Triton X-100, ferredoxin, ferredoxin reductase, 2 mM NADPH, 37° C., GC/MS
Description: as §2, §3, §4, §1

[4] = substrate: CCCCCCCCCC=O; experiment: as above; format: biochemical, Prochlorococcus marinus; conditions: other: aldehyde as substrate, typical assay 25 mM Tris-Cl pH 7.5, 0.1% Triton X-100, ferredoxin, ferredoxin reductase, 2 mM NADPH, 37° C., GC/MS
Description: as §2, §3, §4, §1

[5] = substrate: CCCCCCCCCCCCCCCC=O; experiment: as above; format: biochemical, Prochlorococcus marinus; conditions: other: aldehyde as substrate, typical assay 25 mM Tris-Cl pH 7.5, 0.1% Triton X-100, ferredoxin, ferredoxin reductase, 2 mM NADPH, 37° C., GC/MS
Description: as §2, §3, §4, §1

[6] = substrate: CCCCCCCC=O; experiment: as above; format: biochemical, Prochlorococcus marinus; conditions: other: aldehyde as substrate, typical assay 25 mM Tris-Cl pH 7.5, 0.1% Triton X-100, ferredoxin, ferredoxin reductase, 2 mM NADPH, 37° C., GC/MS
Description: as §2, §3, §4, §1

[7] = substrate: CCCCCCCC/C=C\CCCCCCCC=O; experiment: as above; format: biochemical, Prochlorococcus marinus; conditions: other: aldehyde as substrate, typical assay 25 mM Tris-Cl pH 7.5, 0.1% Triton X-100, ferredoxin, ferredoxin reductase, 2 mM NADPH, 37° C., GC/MS
Description: as §2, §3, §4, §1

[8] = substrate: CCCCCCCCCCCCCCCCCC=O; experiment: as above; format: biochemical, Prochlorococcus marinus; conditions: other: aldehyde as substrate, typical assay 25 mM Tris-Cl pH 7.5, 0.1% Triton X-100, ferredoxin, ferredoxin reductase, 2 mM NADPH, 37° C., GC/MS
Description: as §2, §3, §4, §1

[9] = target: T1, aldehyde decarbonylase (ADC); conditions: in the absence of catalase; Warui et al. 2011; cited from earlier work

OO [H2O2, hydrogen peroxide, reference compound]
inhibition of ADC by H2O2 in low oxygen atmosphere ([1]; 4% (50 μM) atmosphere): enhanced | inhibition of ADC by H2O2 in oxygen atmosphere ([1]; 100% O2 (1250 μM) atmosphere, FIG. 2): lessened | inhibition of ADC activity by H2O2 ([1]; H2O2 added to decarbonylase assays, FIG. 1A / FIG. 2): selectively inhibited; also recorded: increasing inhibition

B1: aldehyde decarbonylase (ADC) (Prochlorococcus marinus str. MIT 9313) (protein)
chain: T1 sequence (Q7V6D4 1-243)
notes: … (His6 tag) (N); made in house; host or cells: E. coli BL21 (DE3) Gold
Km [2]: 18.9 ± 1.7 µM | Km [3]: 45.3 ± 18.5 µM | Km [4]: 29.5 ± 6.2 µM | Km [5]: 30.1 ± 4.2 µM | Km [6]: 27.7 ± 9.9 µM | Km [7]: 44.4 ± 7.2 µM | Km [8]: 41.3 ± 4.8 µM

B2: ADC: Prochlorococcus marinus aldehyde decarbonylase, GenBank CAE21406.1, N-terminal His tag (protein, UniProt Q7V6D4 1-243, looked up)
Aldehyde decarbonylase: T1 sequence (Q7V6D4 1-243)
modifications: N-terminal His tag
notes: Prochlorococcus marinus aldehyde decarbonylase, GenBank CAE21406.1, N-terminal His tag
sensitivity of decarbonylase activity to H2O2 inhibition ([1]; 200 μM substrate, 1 mM H2O2 added, FIG. 6A): inhibited by H2O2 | decarbonylase activity with or without added catalase ([1]; 200 μM substrate, excess NADPH, ferredoxin, FNR, FIG. 6A): highest activity only when catalase was added | time after which ADC activity was inhibited ([1]; without catalase, FIG. 1B): about 15 min | turnovers until ADC activity was inhibited ([1]; without catalase, FIG. 1B): about 3 turnovers | turnovers of ADC before it becomes inactive [9]: approximately three

B3: catalase: catalase enzyme (Sigma C-9322) added at 4 mg/mL; converts hydrogen peroxide to water and oxygen (protein, UniProt P00432 2-527, looked up)
Catalase: ADNRDPASDQMKHWKEQRAAQKPDVLTTGGGNPVGDKLNSLTVGPRGPLLVQDVVFTDEMAHFDRERIPERVVHAKGAGAFGYFEVTHDITRYSKAKVFEHIGKRTPIAVRFSTVAGESGSADTVRDPRGFAVKFYTEDGNWDLVGNNTPIFFIRDALLFPSFIHSQKRNPQTHLKDPDMVWDFWSLRPESLHQVSFLFSDRGIPDGHRHMNGYGSHTFKLVNANGEAVYCKFHYKTDQGIKNLSVEDAARLAHEDPDYGLRDLFNAIATGNYPSWTLYIQVMTFSEAEIFPFNPFDLTKVWPHGDYPLIPVGKLVLNRNPVNYFAEVEQLAFDPSNMPPGIEPSPDKMLQGRLFAYPDTHRHRLGPNYLQIPVNCPYRARVANYQRDGPMCMMDNQGGAPNYYPNSFSAPEHQPSALEHRTHFSGDVQRFNSANDDNVTQVRTFYLKVLNEEQRKRLCENIAGHLKDAQLFIQKKAVKNFSDVHPEYGSRIQALLDKYNEEKPKNAVHTYVQHGSHLSAREKANL
relief of inhibition by catalase in all electron transport systems studied ([1]; Maize FNR/anabaena Fd, Spinach FNR/ferredoxin, PMS/NADH, FIG. 10): relieves the inhibition | relief of H2O2 inhibition of ADC by added catalase ([1]; catalase added, 0, 1 or 10 mM H2O2 (FIG. 3), FIG. 1B): restoration of ADC activity; also recorded: effective in overcoming the H2O2 induced inhibition of ADC | turnovers of the ADC reaction in the presence of catalase ([1]; excess aldehyde substrate, NADPH, ferredoxin NADPH reductase and ferredoxin, 16 hrs (FIG. 9)): greater than 150 turnovers
